Measured values: paper PMC11841055, “Structural characterization of pyruvic oxime dioxygenase, a key enzyme in heterotrophic nitrification” (Journal of Bacteriology, 2025)

What was measured:
CC(=NO)C(=O)O = test system: T1, CC(=NO)C(=O)O; assay: nitrite production, diazo-coupling spectrophotometry; assay type: biochemical, Alcaligenes faecalis; conditions: 20 mM Tris-HCl pH 8.0, 1.0 mM sodium ascorbate, 100 µM FeSO4, O2 as co-substrate
T1 construct: full length, 261 residues (Met1-Arg261); recombinant in E. coli; variants with C-terminal His6-tag, WT by two untagged chromatographic steps; homotetramer, Fe(II)-dependent
Excerpt: (§1) nitrite production, diazo-coupling spectrophotometry on AfPOD

[1] = substrate: CC(=NO)C(=O)O; assay: as above; assay type: biochemical, Alcaligenes faecalis; conditions: 20 mM Tris-HCl pH 8.0, 1.0 mM sodium ascorbate, 100 µM FeSO4, O2 as co-substrate
Excerpt: as §1

Molecule: AfPOD (Alcaligenes faecalis; F69A)
- Km (CC(=NO)C(=O)O): 41509 ± 9984 µM
- kcat (CC(=NO)C(=O)O): 0.246 ± 0.018 s⁻¹
- kcat/Km (CC(=NO)C(=O)O): 5.9 M⁻¹ s⁻¹

Molecule: AfPOD (Alcaligenes faecalis; K8E)
- Km (CC(=NO)C(=O)O): 68766 ± 20299 µM
- kcat (CC(=NO)C(=O)O): 0.632 ± 0.066 s⁻¹
- kcat/Km (CC(=NO)C(=O)O): 9.2 M⁻¹ s⁻¹

Molecule: AfPOD (Alcaligenes faecalis; E229K/K8E)
- Km (CC(=NO)C(=O)O): 2538 ± 568 µM
- kcat (CC(=NO)C(=O)O): 1.76 ± 0.109 s⁻¹
- kcat/Km (CC(=NO)C(=O)O): 690 M⁻¹ s⁻¹

Molecule: AfPOD (Alcaligenes faecalis; H104A)
- Km (CC(=NO)C(=O)O): 170 ± 37 µM
- kcat (CC(=NO)C(=O)O): 0.21 ± 0.013 s⁻¹
- kcat/Km (CC(=NO)C(=O)O): 1200 M⁻¹ s⁻¹

Molecule: AfPOD (Alcaligenes faecalis; E229K)
- Km (CC(=NO)C(=O)O): 2150 ± 172 µM
- kcat (CC(=NO)C(=O)O): 4.58 ± 0.098 s⁻¹
- kcat/Km (CC(=NO)C(=O)O): 2100 M⁻¹ s⁻¹

Molecule: AfPOD (Alcaligenes faecalis; Q53A)
- Km (CC(=NO)C(=O)O): 96 ± 18 µM
- kcat (CC(=NO)C(=O)O): 0.162 ± 0.008 s⁻¹
- kcat/Km (CC(=NO)C(=O)O): 1700 M⁻¹ s⁻¹

Molecule: AfPOD (Alcaligenes faecalis; Y233A)
- Km (CC(=NO)C(=O)O): 42247 ± 16705 µM
- kcat (CC(=NO)C(=O)O): 0.012 ± 0.001 s⁻¹
- kcat/Km (CC(=NO)C(=O)O): 0.3 M⁻¹ s⁻¹

Molecule: AfPOD (Alcaligenes faecalis; F103A)
- Km (CC(=NO)C(=O)O): 89 ± 22 µM
- kcat (CC(=NO)C(=O)O): 0.008 ± 0.001 s⁻¹
- kcat/Km (CC(=NO)C(=O)O): 90 M⁻¹ s⁻¹

Molecule: AfPOD (Alcaligenes faecalis; E164A)
- Km (CC(=NO)C(=O)O): 943 ± 240 µM
- kcat (CC(=NO)C(=O)O): 0.27 ± 0.02 s⁻¹
- kcat/Km (CC(=NO)C(=O)O): 290 M⁻¹ s⁻¹

B1: AfPOD (Alcaligenes faecalis) (protein)
chain: MDTPLRDKSYFDERATKEMATHLQQVQRDTRETMAFACRILAMTEQEAGLAGQISVRSERPGAYWTLRFGLGFDEATPEDFIEVDRDLNTLSGEGMANPATRFHLWVYEARPDVNSIIHTHSPWATVLATARQPLVISQMDMTPLHNDCAFLGEWPGVPIADQEGVIISKALGDKRAIILAHHGYLTAGKSCQEATYLSVYLERAARLQVRAQAAFGPLTPVDDTLAAEAHDYLLKPSIVNATFDYWSRQTQGIAPLTKTR
- Km [1]: 622 ± 83 µM
- kcat [1]: 4.8 ± 0.169 s⁻¹
- kcat/Km [1]: 7700 M⁻¹ s⁻¹
